Assay: soluble fraction after stress (log2 fold change); higher = more stays soluble; pooled small domains, quantitative proteomics
Conditions: stress: pH 4
Method in brief: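 Pooled custom libraries of small protein domains were subjected to pH 4 and measured by high-throughput quantitative proteomics. The log2 fold change in soluble amount per domain is reported, higher values meaning more remained soluble. This is used as a measure of aggregation propensity.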

Sequence	soluble fraction (log2)
HMGGVSTDKPLNWDADGTSKLTQEQIDYLRSTYDLSDMSKQDYYDLMADLTNMNAISIKDVISQYVK	-0.462
HMGGYVVVGDKDGFWSVVSTPVSKAKAEELLKDTTFPKGEKGKIVSVAEAMSHKKVIGKEYLESGGT	0.0926
HMGHASPGNREALQFALERHQARAAEFAEKAGLSIANASTKFKQLWEQGFLMRNESVADSGGVEFLYQR	-0.0683
HMGHEISLNNSRFLKLLNKTKISISNDDTRHYLNGIFLHLTEAHGRQFLTGVATDSHRLSSSSLEID	-0.226
HMGHRQRRARARNRSMLEDIPGLGPKRRQQLLRQFGGLPQLMRAGVAELSQVPGISDSLARKIHAELHPES	-1.87
HMGHYGQMTRDLIEKAKTYEEGEEKAALVLTIANLMKRHYLTWNRATVENTLIAEQLKEMSEGALTLPEDV	-0.962
HMGIAEGSSVFVRVLAAEDGGRYTVSFAGRRFSVLSRQALGIGSAFRADVKVEKGQVLLVPR	-0.348
HMGIAERKEKQKLEIRNAILEASRKLIVEEGFEKVTMRKIADLIEYSPTTVYLYFKDKNEILFHLHQ	-0.798
HMGIDVSAFSDTALEVLRLQAAGYTTREIAQQLHITQRTVKYHASENYRKLDARNLVDAVQIAQSLHI	-0.602
HMGIEIKLLMSFMTDSGRKVSLFVTDPREDVTETEIKQVMDLIIEKNIFAPNGEDIVSAKEAKIVQT	-1.2
HMGIERTNADTSFSVNVYGKELIITSNKPLVVNIYAIDGTLVRTEQVTIGVNTVSGLPSGIYVVGQQKVVI	-0.752
HMGIIVDMSKIKQMLQLSEAGHSNRKIALELGINKETVNNYMQLIRNGRLDIRQLLKMDDPELERRFHA	0.23
HMGIKLSDRQMQIVEIVKSQQPITSEQVAERLNLTRAALRSDLSILTMAGILEARPKVGYSLTGR	0.14
HMGILPDDVKLNIKEAKKIGFPIMLKAIHGGGGRGMMIVQSEDEFADAMKITKTEAKNSFGNGDLYFEKFF	0.0153
HMGITRQQALQQINQSASPKKILNASLGKRGSEFVWDIGYLSKSGKLNYVTYSFRSGEQLNAIKN	-0.504
HMGIVAGGTQSIATLRAIDTTDAQLYPDKILINVEDAGLYRLDRQSTATDDGNQVIKPTVGVGRWLKMTS	0.0998
HMGIVVDGTMTLEGVAERYGMSVGELARVIGVPPEYSNERLGRLRKSYEFEMDDIRIYIIQKQ	-1.31
HMGKAYMVPDVKNKSVNQAQLLLADKHMNGVVVDSSYVKELPAGIVLDQTPVGGMKVKEGRTVYLTINSD	0.0742
HMGKDIYLTSGWVEKFDELNEFSNSVDNYDRLNQFGMYENAIIGDTGVIKITDEMIFDLYEKIQVPVEAGP	-1.04
HMGKEDLTAAIKKMTLNDKLDIHKIVANFQTNDSEEVITAVKWLMENNYLLKIKNNYTWNTKEK	0.22
HMGKHYLLKDDNGTITIYKILEDGTQEVYEKTEISTTYLPQTDNIGIKQGIRVNGDEALNELIENF	-0.821
HMGKKGPELSENEKSIFSILSKSGSMDLTTLKEASGLSNKQWDKGIKGLGKHGLTKVIKTEDALLVEVV	0.0105
HMGKKYVPGMAVKLSAVPLYAASTSKVPSTHVTGTYYLWDDEVVRGRLRITNLKSRVGISGQVTGWIDKDR	0.0244

Sequence	soluble fraction (log2)
HMGKNIQAIRYKNNMTQDQVVAKLNLMGISITKSTYAKLETNRMNIKASELVALAKLFHTDINAFFSG	-0.0779
HMGKNYYEILGITKSASEEQVRKAFRGLAMEWHPDRNRSADSEERFKEINEAYQVLIDPKKRQMYDQYGR	0.349
HMGKPSSEELEALGRRTLEENVDVVEEILGGRDPKGKKIKYLEGLMMRALRGQETPEAVRRTLEELIFK	0.00684
HMGKRGKEMQTAVLAILRASDRPYSAYELLESLKDIYPKIAPPTVYRALAALTQRGQIRRLESLNAFI	0.22
HMGKRKDFTYTGNYFSEYKNQTFPSLSSFLKLVGKYENYGTIKRRVRFGWDIDEAILRENIN	-0.231
HMGKSKAAQSSLVRSIMHQISDKNRGPMPLSEIIDRASIQSIDEAIVRSLVSRMKEQGEIYEPSLGTYEF	-0.163
HMGKTIIQLATDYLIKNMQPKSLHDIESYVLTRKKIKKSSIGAILLSKPNIFGRTEDGLFGLRIWNNFQYT	-0.14
HMGKTRSTDRTRRAILDAASDLMGKHGTSVSLARIAEAAGMSKGGLLHHFPSRNDLIRALGED	0.396
HMGKVNTRNRNEGKFYKNGKKKPANWEYRFEAAPVNGKRQQISDAGYPTEKAAYEAGIAAYEKYNSAGSVN	0.0128
HMGKVTILSNPVKDALVIMGLHNAETIDVRLFDNTGRLVMQGSQSRMDISSLSPGLYILQVNGKILKVIK	-0.222
HMGLASEVKTEDVLNEEKYDFEPDLIGNNNEAIYQNKQTGSYVLFDRNQNKVTKVLSAGEVLNHSKYNE	0.342
HMGLDQNTLDRVDDINDTLATGIEIGPETRGTIEELNETLANGLKAGFDEETLARVDELLRVVEDGLK	-1.15
HMGLGQRIKARREALGLSQARLGEAVGVSLQAVSNWERDEYLPDTARLPLIARALGLTPGQLME	0.11
HMGLKDTEVYMPDVRGLIEEEAQTKLKASFLTMKVSYTSSDEVKKGYVISQAPSADSVVLKGASVTVIVS	0.112
HMGLLVPELTAEENVSLAAMIAGVPRQQARSISADLLNRLGLGQMLDRRMGEMSGGQAQRVAIAPIYGKF	-0.129
HMGLNVSYRMDGENVVETIIFSGATMIRTVTPTGTMTIKTIENGSTSTAKVNADYSVYKKIYEAQY	-1.03
HMGLPLETVVTHATKLEIVRDGRVSGSIGLSAGVKVDVIALEGDNLQVRYRSLSGRVPVAHTGLAALA	-0.533
HMGLPPIATGVNDNMSFSQAFAAARAEVGAGGAFEWHGRVYGTYYKNEWDGMSAQERHDFEIAAIRGS	-0.0114
HMGLSIPLMGAKASDIEISTLNDEVQRKLKIIVKEQGHENLQRVVPLPSEAREIQAHFINGRLHLR	0.214
HMGLYPYSGTPADNQEANERRIFDIYSTHLERIFSDFSGATLRTKRLVLRLMQELVHSDPVRMAGILDEL	0.1
HMGMAQELMESRLTAVFTSGKDQLAVLQRKDGSTLKLGADSKPWRIESFDGRKAVFVSADQQRVERLL	-0.599
HMGMGIGQIIKEKRTALKMTQNELAERLGVSQQSVTGWENNAAVPRESAVRGMMDIFGLSRNELFGEP	0.0969
HMGMMTLGQRIAQYRKAMGISQEELGGRLGVSRQAVSKWETDAAAPDMENLLALAREFGVSVAELTETP	-0.11

Sequence	soluble fraction (log2)
HMGMTRPLFVTDPGLVRIGLVSPIFEKLGSGKLSPQLFDQVKEDPPEQTVFDGVEFARETGIDGVIGFG	0.0343
HMGMVDKSMYSRYDVGDLVKVLRGPLEGSEGHITEINTDTGTVKVETVFFGRSTVVEVDFSEIDK	-1.35
HMGNAQELQKKLEGLKGISGIEKLESDHYAEKYLVRITQPVDHKNPAAGTFTQRVIVAHVGFDRPTILVT	0.318
HMGNHRNMSAEEEAAILAPFKARAEAGELVEISEIAKAYQSAVDHPISRGQIYFVLHRHGWRKV	-0.638
HMGNIALAIARFREMIAEDPNLQPVRLHLAMALMADHQDEAARGQLEKLRSDQLPDDIRKIVDDALAALR	-0.487
HMGNIIITPNPASDFIKIISNSPIIKFGFYDIYGNTINKKFNDNSINISDLPVGMYLINLNERYFKLLK	0.021
HMGNIITQEAAVKLAQDRVPNATLVKIEYDFDDGRPVYEGELREGRWEYEFEIDAATGEFLKWEKD	-0.163
HMGNKWKPIILYLLSNGSMRFGMLNALIPTISKKVLTNQLKELENDGLLLRQSFAEIPPRVEYSLTEKA	0.165
HMGNLASGAYEQIKRRILSLEYLPGSILQERGLAEELGISRTPVREAIHRLSQEGWLKINSRKNIRVR	-0.482
HMGNLASRVAEQLLDKMRGDSLVPGTRLPSEIAMAKHFGVSRTVMREAIARLKADGLLETRRGSGAFVLAT	-0.0652
HMGNLEENFRLKAGTEDGAWEFIRYHLGKLPVVNESNGTAIVNAERQAFLLFDRMVAFHIQRGVMVPLSAP	-0.159
HMGNLVDGINKKLTHVRDSLPEGYTLDEFKSAFQQQYPAAYDAYEGDKGKQFDKWLGNVIQSLPKK	0.137
HMGNNSIDIKDVIYNLVEISQLQAFDIVKHFKTWENLVNKPDELDTVIDGDSDIVDRIKYKIKSLS	-0.568
HMGNQALSSVLSDIAGIGPVKTKELLRVYPDLDSLRQAPVEEVAKVKGIGRQLAQKIHDHFSSR	-0.0357
HMGNRWENLISNKMIDDVDEELLRKYIAQAHDAGRIAISYTDRKTVLNQLELTDGDRLLNAGKVLFSD	-0.657
HMGNTTEVLVATQDVKANTKIKESMFTTERVDTASLPDNYLSADSAKDVVGYYTYIGFTKGSVISKSNIAT	0.0364
HMGNVRSWKGWTSAGGTRVQMRQGDSINSMARRYGVPIQAIVAVNGIDDPAKVQPGQSVIIPTYVY	0.118
HMGNWEQQLRSWADGELATGKQDILTTAVPAFERALIETALSHTNGRKRDAAELLGWGRNTLTRKLKELGM	-0.46
HMGNYEEAILAFEAAIKIDPKNADAYRKLAEAYEKTGDEDAALRTLETGAEATGDRELADLAEKKRQELDA	0.22
HMGPASTGAHQLGLKPGDEVTHRAWGEGVVTSTTGEGDRAEAVVDFDAVGEKRLLLAWAPLER	-0.705
HMGPDTVDRTRRFKWVDNEVVVNFGKNAGRTLRDLAENDPGFLRWIVRSDFSDEVRTIANDALMGKFPTRK	-0.151
HMGPEAFPVPYVVDIELDRAIYVIEQSGFIVGQKLEANDNNVPRGFVISQNPPAGTKLGPESIVDLVVSS	-0.281

From the domain aggregation screens of Martell et al. (2025)
